Laboratory results: patent publication US20240218057A1 (ROCKEFELLER UNIVERSITY, published 2024)

B1: C1053 (antibody, V domains shown)
VH: EVQLLESGGGLVQPGGSLRLSCAASGFTFSSYAMNWVRQAPGKGLEWVSAISGSGGGTYYADSVKGRFTISRDNSKNTLYLQMDSLRAEDTAVYYCAKDVPIEQQLVPTFDYWGQGALVTVSS
VL: DIQMTQSPSSLSASVGDRVTITCRASQSISRYLNWYQQKPGKAPKLLIYGASSLQSGVPSRFSGSGSGTDFTLTISSLQPEDFATYWCQQSYSTLSITFGQGTRLEIK
B2: C1054 (antibody, V domains shown)
VH: EVQLLESGGGLVQPGGSLRLSCVVSGFTFSSYAMNWVRQAPGKGLEWVSVIGGSGDGRYYADSVKGRFTISRDNSKNTLYLQMNSLRGDDTAVYYCARDVPVEQQLVPTFDYWGQGTLVTVSS
VL: DIQMTQSPSSLSASVGDRVTITCRASQSISRYLNWYQQKPGKAPKLLIYAASSLQSGVPSRFSGSGSGTEFTLTISSLQPEDFATYYCQQSYSTLSITFGQGTRLEIK
B3: C1061 (antibody, V domains shown)
VH: EVQLVESGGGLVQPGGSLRLSCAASGFTFSRYDMHWVRQGTGKGLEWVSAIGTSGDTYYPDSVKGRFTISRENAKNSLYLQMNSLRAGDTAVYYCARGGLQTTTWLFDYWGQGTLVTVSS
VL: DIQMTQSPSSLSASVGDRVTITCRASQSISRYLNWYQQKPGKAPKLLIYAASSLQSGVPSRFSGSGAGTDFTLTISSLQPEDFAIYYCQQSYSNPPITFGQGTRLEIK
B4: C1062 (antibody, V domains shown)
VH: EVQLVESGGGLVQPGGSLRLSCAASGFTFSNYDMHWVRQTTGKGLEWVSAIGTAGDTYYPGSVKGRFTMSRENAKNSLYLQMNSLRAGDTAVYYCARGGLQTTTWLFDNWGQGTLVTVSS
VL: DIQMTQSPSSLSASVGDRVTITCRASQTISRYLNWYQQKPGKAPKLLIYAASSLQSGVPSRFSGSGSGTDFTLTISSLQPEDFATYYCQQSYTMPPITFGQGTRLEIK
B5: C1058 (antibody, V domains shown)
VH: EVQLVESGGGLVQPGGSLRLSCAASGIIVSSNYMNWVRQVPGKGLEWVSVLYSGGSTFYADSVRGRFTISRDNSKNTLFLQMNSLRPEDTAVYYCARDFREGAFDIWGQGTMVTV
VL: DIQLTQSPSFLSASVGDRVTITCRASQGISSYLAWYQQKPGKAPNLLIYAASTLQSGVPSRFSGSGSGTDFTLTISSLQPEDFATYYCQQLNSYSPLFGQGTRLEIK
B6: C1059 (antibody, V domains shown)
VH: EVQLVESGGGLVQPGGSLRLSCAASGVTVSYNYMHWVRQAPGKGLEWVSVFFPGGSIFYADSVKGRFSISRDNSHNTLYLQMNNLRPEDTAVYYCARDFREGAIDLWGQGTMVTVSS
VL: DIQLTQSPSFLSASVEDRVTITCRASQGISSYLAWYQQKPGKAPKLLIYGASTLQSGVPSRFSGSGSGTEFTLTISSLQPEDSATYYCQQLNSYPPLFGQGTRLEIK
B7: C1068 (antibody, V domains shown)
VH: QVQLVESGGGVVQPGRSLRLSCAASGFTFSTFAMHWVRQAPGKGLEWVAVTSYDGSNKYYADSVKGRFTISRDNSKNTLYLQMNSLRAEDTAVYYCARGLLWFGESEYFQHWGQGTLVTVSS
VL: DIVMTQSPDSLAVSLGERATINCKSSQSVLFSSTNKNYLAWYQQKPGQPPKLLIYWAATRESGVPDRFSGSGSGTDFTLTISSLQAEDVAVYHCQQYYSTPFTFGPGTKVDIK
B8: C1057 (antibody, V domains shown)
VH: QVQLVQSGAEVKKPGSSVKVSCKASGGTFTTYIISWVRQAPGQGLEWMGGISPMLGTANYAQKFQGGVTITADESTTTAYMEMSGLRSEDTAVYYCARAHMYCSDGSCYRQSGYFDSWGQGTLVTVSS
VL: QSALTQPRSVSGSPGQSVTITCTGTSSNVGGYKYVSWFQQHPGKAPKFLIYDVSERSSGVPDRFSGSKSGNTASLTISGLQAEDEADYYCCSYAGKYTVVFGGGTRLTV
B9: C1052 (antibody, V domains shown)
VH: QVQLVQSGAEVKKPGASVKVSCKVSGYTLSELSMHWVRQAPGEGLEWLGGFDPEDGETINAQKFQGRVTMTEDRSTDTAYMELSSLRSEDTAVYYCATRGRYCSSGNCYYHHWGQGTLVTVSS
VL: DIQMTQSPSTLSASVGDRVIITCRASQNIHNWLAWYQQKPGKAPKLLIYKASSLESGVPSRFSGSGSGTEFTLTISSLQPDDFATYFCQQYHSYSWTFGQGTKVEIK
B10: C906 (antibody, V domains shown)
VH: EVQLVESGGGLIKPGRSLRLSCTASGFTFGDYAMTWFRQAPGKGLEWVGFIRSKAYGGTTGYAASVKYRFTISRDDSKSIVYLQMDSLKTEDTAVYYCTRWDGWSQHDYWGQGTLVTVSS
VL: DIVMTQSPLSLSVTPGEPASISCRSSQSLLHSNGINYFDWYLQKPGQSPQLLIYLGSNRASGVPDRFSGSGSGTDFTLKISRVEAEDVGVYYCMQVLQIPYTFGQGTKLEI
B11: C904 (antibody, V domains shown)
VH: QVQLQQWGAGLLKPSETLSLTCAVNGGSLSLYYWSWIRQSPGKGLEWIGEINHFGGSDYKPSLKSRVSISVDTSTNQFSLKLSSVTAADTAVYYCARKPLLHSNISPGAFDIWGQGTMVTVSS
VL: EIVLTQSPGTLSLSPGERATLSCRASQSVAGSYLAWYQQKPGQAPRLLIYGASSRATGVPDRISGSGSGTDFTLTISRLEPEDFAVYYCQQYTNTPRTFGGGTKVEI
B12: C1066 (antibody, V domains shown)
VH: EVQLVESGGGLVQPGRSLRLSCAASGFMFDDYAMHWVRQAPGKGLEWVSGINWSSADIGYVDSVKGRFTISRDNAKNSLYLQMNSLRTEDTAFYYCAKGWFGELLGGSDSWGQGTLVTVSS
VL: QLVLTQSSSASASLGSSVKLTCTLNSGHSSYIIAWHQQQPGKAPRYLMKLEGSGSYNKGSGVPDRFSGSSSGADRYLTISNLQFEDEADYYCATWDSNTQVFGGGTKLTVL
B13: C1030 (antibody, V domains shown)
VH: EVQLVESGGGLVQPGGSLRLSCEASGVIVSSNYMNWVRQAPGKGPEWVSVLYAGGSTFYADSVKGRFTISRDDSKNTLFLQMNNLRAEDTAVYFCARDLIAFGMDVWGQGTTVTVSS
VL: DIQLTQSPSFLSASVGDRVTITCRASQGINSDLAWYQQKPGKAPKLLIYGASTLQSGVPSRFSGSGSGTEFSLTVSSLQPEDFATYYCQQLNSYRRFGGGTKVEIK
B14: C1055 (antibody, V domains shown)
VH: QVQLVESGGGVVQPGRSLRLSCAASGFTFSTYGMNWVRQAPGKGLEWVALILYDGSDKYYADSVKSRFTISRDNSRNTLYLQMTSLRAEDTAVYYCAKALSSTYYYDASGPDAFDIWGQGTMVTVSS
VL: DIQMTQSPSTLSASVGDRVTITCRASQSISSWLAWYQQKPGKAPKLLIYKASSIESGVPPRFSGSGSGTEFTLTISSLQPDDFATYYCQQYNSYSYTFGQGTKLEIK
B15: C1060 (antibody, V domains shown)
VH: EVQLVESGGDLVQPGGSLRLSCAASEIIVSRNYMNWVRQAPGKGLEWVSIIYSGGSTFYGDSVKGRFTISRDSSKNTLYLQMHGLRVEDTAIYYCARSYGDYYIDYWGQGTLVTVSS
VL: DIQMTQSPSSVSASVGDRVTITCRTSQSISTSLAWYQQKPGKAPKLLIYAASSLQRGVPSRFSGTGSGTDFTLTISSLQPEDFATYYCQQSSSSPPLFTFGPGTKVDIK
B16: C907 (antibody, V domains shown)
VH: QVQLQESGPGLVKPSETLSLTCTVSGGSITSYYWTWIRQSPGKGLEWIGYIYYIGSTNYNPSLKSRLTISLATSKNQFSLRLNSVTAADTAVYYCASYYNDTSGYSYGLDVWGQGTTVTVSS
VL: DIQMTQSPSSLSAFVGDRVTITCRAGQSISSYLHWYQQKPGKAPKLLIYATSTLQSGVPSRFSGRGSGTDFTLTISGLQPEDFATYYCQQSYSTPQTFGQGTKVEIK
B17: C905 (antibody, V domains shown)
VH: QVQLQESGPGLVTPSQTLSLTCSVSGGSIHSRDFYWGWIRQHPGKGLEWIGHIYYTGNTYYNPSLKSRVTISADTSKNQFSLKLSSVTAADTAVYYCARATVVITLHWFDPWGQGTLVTVSS
VL: NFMLTQPHSVSESPGKTVTISCTGSGGSIASNYVQWYQQRPGSAPTTVIYEDNERPSGVPDRFSGSIDSSSNSASLTISGVKTEDEADYFCQSYDVGNPVIFGGGTKLTVL
B18: C1065 (antibody, V domains shown)
VH: EVQLVESGGGLIQPGGSLRLSCAASGFTVSRNYMSWVRQAPGKGLEWVSVIYSGGSTFYADSVKGRFTISRDNSKNTLYLQMNSLRAEDTAVYYCARGLPTGEGWNYFDYWGQGTLVTVSS
VL: QSALTQPASVSGSPGQSITISCTGTSSDIGGYHYVSWYQQHPGKAPKLMIYDVSNRPSGISNRFSGSKSGNTASLTISGLQAEDEADYYCSSYASSSVIFGGGTKLTVL
B19: C1063 (antibody, V domains shown)
VH: EVQLVQSGAEVKKPGESLKISCKGYGNSFNNYWIAWVRQMPVKGLEWMGVINPGDSDTRYSPSFQGQVTISVDKSISTAYLQWSSLKASDTAMYYCARTWSPAAVAFFDSWGQGTLVTVS
VL: NFMLTQPHSVSESPGKTVTISCTRSSDSIGSNYVQWYQQRPGSSPTIVIYEDSQRPSGVPHRFSGSFDSSSNSASLTISGLKTEDEADYYCQSWDSGNLVFGGGTKLTVL
B20: C1040 (antibody, V domains shown)
VH: QVQLVESGGGVVQPGRSLRLSCAASGFSFINYNMHWVRQAPGKGLEWVAVIWYDGSNKYYADSVKGRFTISRDNSKNTLYLQMNSLRVEDTAVYYCARDPAITEAEIDYWGQGTLVTVSS
VL: DVVMTQSPLSLPVTLGQAASISCRSSQSLVHSDGNTYLNWFQQRPGQSPRRLIYRVSNRDSGVPDRFSASGSGTDFTLKISRVEAEDVGVYYCMQGTHWPWTFGQGTKVEIK
B21: C1067 (antibody, V domains shown)
VH: QVQLVQSGAEVKKPGASVKVSCKASRDTFTTHYIHWVRQAPGQGLEWMGIINPSGGSISYAQKFQGRVTMTRDTSTSTVYMELSSLRSEDTAVYYCARGGIVPHLSNWFDPWGQGTLVTVSS
VL: EIVLTQSPGTLSLSPGERATLSCRASQSVSSSYLAWYQQKPGQAPRLLIYGASSRATGIPDRFTGSGSGTDFTLTISRLEPEDFAVYYCQQYGRSSGFTFGPGTKVDIK
B22: C903 (antibody, V domains shown)
VH: EVQLVESGGGLIQPGGSLRLSCAASGFIVSRNYMSWVRQAPGKGLEWVSIIYSGGSTFYADSVKGRFTISRDNSKNTVYLQMNSLRAEDTAVYYCARDYGDFYFDYWGQGTLVTVSS
VL: EIVLTQSPGTLSLSPGERATLSCRASQSVSSSYLAWYQQKPGQAPRLLIFDVSSRATGIPDRFSGSGSGTDFTLTISRLEPEDFAVYYCQQYGSSPRTFGQGTKVEIK
B23: C1043 (antibody, V domains shown)
VH: EVQLVESGGGLVQPGRSLRLSCAASGFIFDNYAMHWVRQAPGKGLEWVSGISWNSDSIGYADSVKGRFTISRDNAKNSLYLQMSSLRAEDTALYYCAKDLLGNYYYYTLDVWGQGTTVTVSS
VL: QSALTQPASVSGSPGQSITISCTGTSSDIGGNNYVSWYQQHPGKAPRLMIFDVSYRPSGVSNRFSGSKSGNTASLTISGLQAEDEADYYCISYTTSSTLGVFGGGTKLTVL

What follows are binders tested against T1, SARS-COV-2 RBD (SARS-COV-2, UniProt P0DTC2 319-539) (assay: ELISA, RBD coated on plate).
T1 construct: also called WT RBD

Compared with B1, B2 is 2.2-fold lower in EC50: 4.13 ng/mL for the first, 1.84 ng/mL for the second.

B3 and B4 are within 1.5-fold of each other in EC50: 2.26 ng/mL for the first, 2.61 ng/mL for the second.

B5 and B6 are within 1.5-fold of each other in EC50: 2.13 ng/mL for the first, 2.17 ng/mL for the second.

B7 and B8 are within 1.5-fold of each other in EC50: 2.48 ng/mL for the first, 2.17 ng/mL for the second.

Going from B9 to B10, the EC50 falls from 2.64 ng/mL to 1.07 ng/mL (2.5-fold).

B11 and B12 are within 1.5-fold of each other in EC50: 3.31 ng/mL for the first, 3.01 ng/mL for the second.

B13 and B14 are within 1.5-fold of each other in EC50: 2.78 ng/mL for the first, 2.71 ng/mL for the second.

B15 and B16 are within 1.5-fold of each other in EC50: 2.67 ng/mL for the first, 3.71 ng/mL for the second.

B17 and B18 are within 1.5-fold of each other in EC50: 3.06 ng/mL for the first, 3.52 ng/mL for the second.

B19 and B20 are within 1.5-fold of each other in EC50: 3.04 ng/mL for the first, 2.08 ng/mL for the second.

B21 and B22 are within 1.5-fold of each other in EC50: 2.93 ng/mL for the first, 2.54 ng/mL for the second.

For B23, the EC50 was 2.77 ng/mL.
